In patent US9993566B2, “SEZ6 modulators and methods of use” (AbbVie Stemcentrx LLC, priority 2013, dated 2018):

Tests used:
LU124OXAHIp2 cells = test: Oxaliplatin sensitivity, Cell Titer Glo dose response; assay type: cell-based, human; settings: seven days in culture, oxaliplatin-resistant line
From the text: (§1) Cisplatin and its derivatives, including oxaliplatin are the chemotherapeutic standard of care for SCLC. An oxaliplatin-resistant SCLC PDX line was developed due to concerns that cisplatin may not be stable in tissue culture medium (Schuldes et al., 1997, PMID: 9128988). The oxaliplatin-resistant SCLC line was generated by isolating human cells from LU124p2, a SCLC PDX line that had been passaged subcutaneously twice through NOD.SCID mice. LU124p2 tumors were resected from mice after reaching 800-2,000 mm^3, dissociated into single cell suspensions using art-recognized enzymatic digestion techniques (see, for example, US2007/0292414), and depleted of murine cells. The cells were then washed and cultured in 5% oxygen and serum-free medium and immediately treated with 1 μM of oxaliplatin. After seven days of exposure to oxaliplatin, the cells were washed and allowed to recover for two weeks in standard serum-free media with fresh renewal of medium twice a week. After the recovery period, the cells were washed and re-plated into a new flask with 1 μM of oxaliplatin for seven more days, followed by a final wash and a two week recovery period. The resulting cell line was termed LU124OXAHIp2. Single cell suspensions were generated using Versene (Invitrogen). Some of the cells were injected into mice to propagate the LU124OXAHIp2 cell line, while other cells were cultured in vitro to test sensitivity to oxaliplatin.
(§2) Oxaliplatin sensitivity of LU124OXAHIp2 was tested as follows: LU124OXAHIp2 cells were plated onto 96-well plates and treated with a titration of oxaliplatin in serum-free medium as is standard in the art. After seven days in culture, cells were harvested using Cell Titer Glo® (Promega) as per the manufacturer's instructions and dose response curves were obtained. […] To determine whether the resistance was stable, LU124OXAHIp2 cells were passaged again through immunocompromised mice to yield the cell line called LU124OXAHIp3.

LU124OXAHIp3 cells = test: as above; assay type: cell-based, human; settings: after further passage through mice without oxaliplatin
From the text: as §1, §2

[1] = test system: LU124p2 parental cell line; test: as above; assay type: cell-based, human; settings: seven days in culture
From the text: as §1, §2

mouse SEZ6 = biological target: T1, mouse SEZ6 (Mus musculus, UniProt Q7TSK2); test: Flow cytometry cross reactivity, Neuro2a cells; assay type: binding; settings: 5 μg/mL antibody
T1 construct: Neuro2a (ATCC Cat # CCL131), and RIN-m5F (ATCC cat # CRL-11605) cell lines which express mouse SEZ6 and rat SEZ6; host or cells: Neuro2a
Procedure: In this regard flow cytometry was performed using a FACSCanto II as per the manufacturer's instructions in order to confirm that selected SC17 antibody modulators can immunospecifically associate with human SEZ6 and to determine whether the same modulators cross-react with cynomolgus, rat and/or murine SEZ6 in addition to SEZ6L and SEZ6L2. More particularly modulators were tested for cross reactivity to murine SEZ6 and rat SEZ6 by flow cytometry against Neuro2a (ATCC Cat # CCL131), and RIN-m5F (ATCC cat # CRL-11605) cell lines which express mouse SEZ6 and rat SEZ6, respectively. For examining cross reactivity to cynomolgus SEZ6, yeast displaying the extracellular domain of cynomolgus SEZ6 (Boder et al, 1997) were used for flow cytometry analysis.
Briefly 1×10^5 cells per well of Neuro2a, RIN-5mF, or yeast displaying cynomolgus SEZ6 cells were incubated for 30 minutes with 50 μL PBS (2% FCS) buffer with 5 μg/mL antibody. Cells were washed twice with the same buffer and then incubated with 50 μL per sample DyLight 649 labeled goat-anti-mouse IgG, Fc fragment specific secondary diluted 1:200 in PBS buffer. After incubating for 15 minutes cells were washed twice with the PBS buffer and re-suspended in the same with DAPI for flow cytometry analysis of Neuro2a and Rin-m5F or buffer without DAPI for flow cytometric analysis of yeast cells with cSEZ6.

rat SEZ6 = test: Flow cytometry cross reactivity, RIN-m5F cells; assay type: binding; settings: 5 μg/mL antibody
In short: (§3)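 Neuro2a (mouse SEZ6), RIN-m5F (rat SEZ6) or yeast displaying cynomolgus SEZ6 extracellular domain, 1×10^5 cells, incubated 30 min with 5 μg/mL antibody in PBS/2% FCS. Detection by DyLight 649 anti-mouse IgG Fc secondary (1:200, 15 min), then flow cytometry, with DAPI for mammalian cells only.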

SEZ6L2 = biological target: T2, SEZ6L2 (Homo sapiens, UniProt Q6UXD5, INS830AYEELLDNRKLEV); test: ELISA cross reactivity to family member SEZ6L2; assay type: binding; set-up: key to binds SEZ6 family member SEZ6L2 (dagger): *: antibodies that bind SEZ6 family members SEZ6L and SEZ6L2 are designated with an asterisk and/or a dagger, respectively; †: antibodies that bind SEZ6 family members SEZ6L and SEZ6L2 are designated with an asterisk and/or a dagger, respectively
T2 construct: IgK signal peptide (N, cleaved yes); made in house; host or cells: HEK-293T or CHO-S
Procedure: To determine cross reactivity to family member proteins, SEZ6L and SEZ6L2, an ELISA-based assay was used. Plates were coated with SEZ6, SEZ6L, or SEZ6L2 proteins at 0.2 μg/mL in PBS overnight. After washing with PBS containing 0.05% (v/v) Tween 20 (PBST), the wells were blocked with 2% (w/v) BSA in PBS (PBSA), 100 μL/well for 1 hour at room temperature. Antibody was then added at 1 μg/mL in 100 μL PBSA for 1 hour at room temperature. After washing with PBST, 100 μL/well HRP-labeled goat anti-mouse IgG diluted 1:2,000 in PBSA for 1 hour at room temperature. The plates were washed and 100 μL/well of the TMB substrate solution (Thermo Scientific 34028) was added for 15 minutes at room temperature. After developing, an equal volume of 2M H2SO4 was added to stop substrate development and analyzed by spectrophotometer at OD 450. […] As discussed above, such pan-SEZ6 antibodies are compatible with the teachings herein and may be used in conjunction with the disclosed methods.

LU100, a SCLC tumor = test: Fab-saporin cytotoxicity in NTX tumor cells; assay type: cell-based, human; settings: 50 and 500 pM antibody with Fab-saporin, seven days
Procedure: (§4) To corroborate the results of Example 14 and determine whether SEZ6 modulators can mediate toxin internalization and cell killing of human tumor cells (as opposed to engineered cells), mouse lineage-depleted NTX cells were plated and subsequently exposed to anti-SEZ6 antibodies and Fab-saporin.
(§5) NTX tumors were dissociated into a single cell suspension and plated on Primaria™ plates (BD Biosciences) in growth factor supplemented serum free media as is known in the art. After culturing the cells for one day at 37° C./5% CO2/5% O2, they were treated with a control (IgG1, IgG2a or IgG2b) or a murine SEZ6 modulator and Fab-saporin as described in Example 14. After seven days, the modulator-mediated saporin cytotoxicity was assessed by quantifying the remaining number of live cells using Cell Titer Glo.

LU37, a NSCLC tumor = test: Fab-saporin cytotoxicity in NTX tumor cells; assay type: cell-based, human; settings: antibody with Fab-saporin, seven days
Procedure: as §4, §5

LU80, a SCLC tumor = test: Fab-saporin cytotoxicity in NTX tumor cells; assay type: cell-based, human; settings: antibody with Fab-saporin, seven days
Procedure: as §4, §5

cynomolgus SEZ6 = test: Flow cytometry cross reactivity, yeast displaying extracellular domain of cynomolgus SEZ6; assay type: binding; settings: 5 μg/mL antibody
In short: as §3

SEZ6 ECD = biological target: T3, SEZ6 ECD (Homo sapiens, UniProt Q53EL9); test: Fine epitope mapping (phage display peptide library or yeast-displayed SEZ6 ECD mutants); assay type: binding; settings: epitope conformational (discontinuous) or linear
T3 construct: SEZ6 extracellular domain (amino acids 1-904); expressed in transfected cells; host or cells: yeast (surface display, Cochran et al. protocol)

LU50 LCNEC tumor = test: NTX tumor growth in immunodeficient mice, murine ADCs; assay type: in vivo, human; settings: three injections of 1 mg/kg intraperitoneally over seven days, NOD/SCID mice
Procedure: Patient-derived NTX tumors were grown subcutaneously in the flanks of female NOD/SCID recipient mice using art-recognized techniques. Tumor volumes and mouse weights were monitored twice per week. When tumor volumes reached 150-250 mm^3, mice were randomly assigned to treatment groups and injected intraperitoneally with SC17-ADC1 or a control MsIgG1-ADC1. Mice were given three injections of 1 mg/kg (indicated by the vertical lines in FIG. 17B) over a period of seven days. Following treatment, tumor volumes and mouse weights were monitored until tumors exceeded 800 mm^3 or mice became sick.

SEZ6 = biological target: T4, SEZ6 (Homo sapiens, UniProt Q53EL9); test: Immunohistochemistry validation on FFPE cell pellets; assay type: binding; settings: FFPE sections
T4 construct: produce a cDNA fragment encoding the mature human SEZ6 protein; IgK signal peptide (N); T2A peptide (residue left after ribosomal skipping; GFP is a separate protein) (C); expressed in transfected cells; host or cells: HEK-293T (lentiviral transduction, pCDH-EF1-MCS-T2A-GFP)
Procedure: Immunohistochemistry (IHC) was performed on PDX tumors to confirm that SEZ6 is expressed on the surface of certain PDX tumors; and in order to determine the location of the SEZ6 protein in the tumor architecture. IHC was performed on formalin fixed paraffin embedded (FFPE) tissue sections using an indirect detection method which included murine monoclonal primary antibody against SEZ6 (SC17.140), mouse specific biotin conjugated secondary antibodies, avidin/biotin complex coupled with horse radish peroxidase, and DAB detection (Nakene P K 1968; 16:557-60). […] Specificity was further confirmed by competing signal with a 5 molar excess of purified recombinant SEZ6 on HEK-293T cells overexpressing human SEZ6 and NTX tumors that were shown by IHC to express SEZ6 (data not shown).

[2] = test system: HEK293 cells overexpressing SEZ6; test: In vitro cytotoxicity of ADC; assay type: cell-based, human
Procedure: The final ADC was analyzed for protein concentration (by measuring UV), aggregation (SEC), drug to antibody ratio (DAR) by reverse phase (RP) HPLC, presence of unconjugated antibody by hydrophobic interaction chromatography (HIC) HPLC, non-proteinaceous materials by RP HPLC and in vitro cytotoxicity using a SEZ6 expressing cell line.

LU117 tumor = test: SCLC NTX tumor volume in immunodeficient mice, humanized ADCs; assay type: in vivo, human; settings: three injections of 1 mg/kg over seven days
Procedure: (§6) The ability of humanized anti-SEZ6 ADCs to reduce SCLC tumor volume was also tested. Anti-SEZ6 ADCs (hSC17.17, hSC17.24, hSC17.34 and hSC17.46), and the human IgG1 isotype control ADC (huIgG1) were administered to immunodeficient mice bearing various patient derived NTX tumors. Mice were given three injections of 1 mg/kg (indicated by the vertical lines in FIGS. 18C and 18D) over a period of seven days. Following treatment, tumor volumes and mouse weights were monitored until tumors exceeded 800 mm^3 or mice became sick. Complete and durable elimination of tumor mass was achieved by the administration of humanized anti-SEZ6 ADCs in four SCLC tumors.

LU64 tumor = test: as above; assay type: in vivo, human; settings: three injections of 1 mg/kg over seven days
Procedure: as §6

LU80 tumor = test: as above; assay type: in vivo, human; settings: three injections of 1 mg/kg over seven days
Procedure: as §6

T2 sequence (Q6UXD5 with tags, fused parts or gaps with the stated changes): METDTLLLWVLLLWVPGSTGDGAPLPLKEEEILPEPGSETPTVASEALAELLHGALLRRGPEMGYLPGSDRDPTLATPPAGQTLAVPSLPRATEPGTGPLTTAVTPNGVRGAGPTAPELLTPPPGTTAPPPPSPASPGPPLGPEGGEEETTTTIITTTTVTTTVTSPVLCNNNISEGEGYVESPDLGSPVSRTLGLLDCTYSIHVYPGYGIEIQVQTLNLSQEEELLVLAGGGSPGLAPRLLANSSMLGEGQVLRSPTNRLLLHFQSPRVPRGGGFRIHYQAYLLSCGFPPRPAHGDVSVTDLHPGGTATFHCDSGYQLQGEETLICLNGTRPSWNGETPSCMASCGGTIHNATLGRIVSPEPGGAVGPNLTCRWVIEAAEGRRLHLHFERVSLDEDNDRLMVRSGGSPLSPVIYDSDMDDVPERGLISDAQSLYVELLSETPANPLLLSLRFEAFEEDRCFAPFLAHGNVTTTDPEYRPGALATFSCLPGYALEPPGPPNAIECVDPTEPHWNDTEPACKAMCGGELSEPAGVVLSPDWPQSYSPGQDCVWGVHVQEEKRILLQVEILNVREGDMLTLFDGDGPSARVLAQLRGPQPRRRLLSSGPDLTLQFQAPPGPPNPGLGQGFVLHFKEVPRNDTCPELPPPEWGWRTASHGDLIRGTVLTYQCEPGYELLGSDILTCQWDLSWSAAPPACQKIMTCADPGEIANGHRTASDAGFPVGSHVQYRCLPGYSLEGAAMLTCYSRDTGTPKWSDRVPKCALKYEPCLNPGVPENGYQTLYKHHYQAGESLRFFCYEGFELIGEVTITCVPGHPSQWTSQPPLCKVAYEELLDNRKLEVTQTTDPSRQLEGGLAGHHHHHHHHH
rat SEZ6, sequence (as listed by the source): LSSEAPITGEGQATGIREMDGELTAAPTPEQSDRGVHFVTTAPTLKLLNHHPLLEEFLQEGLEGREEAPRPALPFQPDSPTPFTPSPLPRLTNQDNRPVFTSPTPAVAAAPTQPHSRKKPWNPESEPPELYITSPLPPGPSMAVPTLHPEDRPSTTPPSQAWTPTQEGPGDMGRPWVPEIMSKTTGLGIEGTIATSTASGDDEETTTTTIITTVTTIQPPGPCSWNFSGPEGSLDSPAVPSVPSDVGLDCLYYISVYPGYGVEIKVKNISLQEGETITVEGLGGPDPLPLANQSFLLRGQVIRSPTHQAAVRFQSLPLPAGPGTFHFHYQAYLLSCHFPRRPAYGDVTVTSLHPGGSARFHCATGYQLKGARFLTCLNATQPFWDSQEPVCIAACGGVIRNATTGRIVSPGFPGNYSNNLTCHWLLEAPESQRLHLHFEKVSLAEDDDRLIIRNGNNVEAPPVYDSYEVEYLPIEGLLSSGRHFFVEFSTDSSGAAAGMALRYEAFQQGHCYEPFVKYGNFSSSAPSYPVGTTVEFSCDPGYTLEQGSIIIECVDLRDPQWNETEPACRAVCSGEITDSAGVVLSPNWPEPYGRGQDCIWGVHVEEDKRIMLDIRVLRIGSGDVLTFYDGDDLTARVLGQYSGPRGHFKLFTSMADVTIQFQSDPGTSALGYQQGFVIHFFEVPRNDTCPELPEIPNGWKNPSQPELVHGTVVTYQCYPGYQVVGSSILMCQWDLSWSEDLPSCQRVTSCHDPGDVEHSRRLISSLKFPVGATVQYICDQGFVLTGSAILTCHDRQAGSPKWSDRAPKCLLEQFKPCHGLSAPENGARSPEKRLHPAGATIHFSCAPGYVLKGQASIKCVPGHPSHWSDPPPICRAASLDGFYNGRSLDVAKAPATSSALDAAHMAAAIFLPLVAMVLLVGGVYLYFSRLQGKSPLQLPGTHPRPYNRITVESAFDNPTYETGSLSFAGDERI
T1 sequence (Q7TSK2 20-991): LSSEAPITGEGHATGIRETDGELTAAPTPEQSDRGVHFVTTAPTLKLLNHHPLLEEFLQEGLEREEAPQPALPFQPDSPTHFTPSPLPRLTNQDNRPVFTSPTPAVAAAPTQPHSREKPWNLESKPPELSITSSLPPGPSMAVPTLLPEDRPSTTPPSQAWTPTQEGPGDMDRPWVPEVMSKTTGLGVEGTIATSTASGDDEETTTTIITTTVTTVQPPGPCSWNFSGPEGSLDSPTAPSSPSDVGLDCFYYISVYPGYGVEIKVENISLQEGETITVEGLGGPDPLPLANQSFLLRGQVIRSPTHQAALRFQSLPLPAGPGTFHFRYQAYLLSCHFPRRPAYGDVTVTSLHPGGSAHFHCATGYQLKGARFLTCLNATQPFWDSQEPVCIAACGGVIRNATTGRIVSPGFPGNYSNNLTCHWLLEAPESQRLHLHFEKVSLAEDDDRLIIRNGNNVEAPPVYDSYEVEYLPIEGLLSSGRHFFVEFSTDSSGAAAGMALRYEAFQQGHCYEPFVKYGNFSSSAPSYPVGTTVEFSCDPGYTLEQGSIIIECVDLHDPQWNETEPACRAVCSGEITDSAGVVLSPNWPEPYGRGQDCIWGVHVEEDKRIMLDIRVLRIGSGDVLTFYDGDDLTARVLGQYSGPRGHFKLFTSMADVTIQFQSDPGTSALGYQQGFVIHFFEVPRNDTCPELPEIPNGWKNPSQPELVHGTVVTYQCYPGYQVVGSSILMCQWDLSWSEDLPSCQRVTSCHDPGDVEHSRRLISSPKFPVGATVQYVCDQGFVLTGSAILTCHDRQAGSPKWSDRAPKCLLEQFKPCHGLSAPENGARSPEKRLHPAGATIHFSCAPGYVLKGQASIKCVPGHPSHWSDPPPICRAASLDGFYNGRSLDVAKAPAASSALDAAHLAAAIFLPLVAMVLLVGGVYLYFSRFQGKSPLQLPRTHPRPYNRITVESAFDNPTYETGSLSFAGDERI

Molecule: O=C1[O][Pt]2([NH][C@@H]3CCCC[C@H]3[NH]2)[O]C1=O [oxaliplatin]
- IC50 (LU124OXAHIp2 cells): 2000 to 2500 nM
- resistance to oxaliplatin, LU124OXAHIp3 (LU124OXAHIp3 cells): Resistance was maintained
- IC50 [1]: 36 nM

B1: SC17.6: murine anti-SEZ6 antibody; SC17.6 is duplicate of SC17.16 (antibody, V domains shown)
VH: EVQLQQSGPELMKPGASVKMSCKASGYTFTDYNMYWVKQNQGKSLEWIGEINPNNGGTAYNQKFRGKATLTVDKSSSTAYMELRSLTSEDSAVYYCARYDKGFDYWGQGTTLTVSS
VL: DIQMTQSPASLSVSVGETVTITCRASANINSNLVWYQQKQGKSPQLLVYAATNLADGVPSRFSGSGSGTQYSLKINSLQSEDFGNYYCQHFWGTPRTFGGGTKLEIK
modifications: Murine SC17.16 VH; Murine SC17.16 VL
- cross reactivity to murine SEZ6 (mouse SEZ6): cross reactive
- cross reactivity to rat SEZ6 (rat SEZ6): cross reactive
- cross reactivity with SEZ6L2 (SEZ6L2; ELISA, antibody 1 μg/mL): cross-reactive
- binds SEZ6 family member SEZ6L2 (dagger) (SEZ6L2; mark in Table 5): SC17.6^†, SC17.28^†, SC17.103, SC17.109, SC17.119,
- number of tumor cells, LU100 (LU100, a SCLC tumor): reduction of tumor cells
- number of tumor cells, LU37 (LU37, a NSCLC tumor): reduction in the number of tumor cells
- number of tumor cells, LU80 (LU80, a SCLC tumor): reduction in the number of tumor cells

B2: SC17.46 (antibody, V domains shown)
VH: QVQLQQPGAELVKPGASMKLSCKASGYTFTSYWINWVKQRPGQGLEWIGNIFPDTTTTNYNEKFKSKATLTVDTSSSTAYMQLSSLTSDDSAVYYCAREYYDGTYDAMDYWGQGTSVTV
VL: SFVMTQTPKFLLVSAGDRVTITCKASQSVNNDVAWYQQKPGQSPKLLIYYASNRYTGVPDRFTGSGYGTDFTFTISTVQAEDLAVYFCQQDYSSPRTFGGGTKLEIK
modifications: Murine SC17.46 VH; Murine SC17.46 VL
- cross reactivity to rat SEZ6 (rat SEZ6): lack of cross reactivity
- cross reactivity to cynomolgus SEZ6 (cynomolgus SEZ6): lack of cross reactivity
- Discontinuous (SEZ6 ECD): Yes
- duration of tumor growth suppression, LU50 (LU50 LCNEC tumor): 35 days

B3: SC17.140: murine anti-SEZ6 antibody (antibody, V domains shown)
VH: EVQLQQSGPELMKPGASVKMSCKASGYTFTDYNMHWVKQNQGKSLEWIGEINPNTGGTGYNQKFKGKATLTVDKFSSTAFIELRSLTSEDSAIYYCTRGGYDHYWYFDVWGAGTTVTVSS
VL: QIVLTQSPAIMSASPGEKVTMTCSASSSVSYMHWYQQKSGTSPKRWIYDTSKLASGVPARFSGSGSGTSYSLTISSMEAEDAATYYCQQWSSTPPTFGSGTKLEIK
modifications: Murine SC17.140 VH; Murine SC17.140 VL
notes: murine anti-SEZ6 antibody
- Discontinuous (SEZ6 ECD): Yes
- IHC staining of HEK-293T cell pellets overexpressing SEZ6 compared to naïve HEK-293T cell pellets (SEZ6): specific staining

B4: hSC17.17-ADC1 (conjugate)
VL: EIVLTQSPATLSLSPGERATLSCSASSSVSYMHWYQQKPGQAPRLLIYDTSKLPSGIPARFSGSGSGTDFTLTISSLEPEDFAVYYCQQWSSTPPTFGQGTKLEIK
VH: QVQLVQSGAEVKKPGASVKVSCKASGYTFTDYNMHWVRQAPGQGLEWMGEINPNIGGTGYNQKFKGRVTMTRDTSISTAYMELSRLRSDDTAVYYCARTYSYYSYEFAYWGQGTLVTVSS
- IC50 [2]: 11 nM
- tumor volume, LU117 (LU117 tumor): reduction
- tumor volume, LU64 (LU64 tumor): elimination
- tumor volume, LU80 (LU80 tumor): reduction
